Measurements published in patent publication US20230067757A1 (NOVAROCK BIOTHERAPEUTICS, published 2023).
Where two headings read alike, the source gives them in different places.

Tests used:
[1] = target: human claudin 18 isoform 2 (claudin 18.2) (human); experiment: cell-based or functional assay
[2] = target: T1, human claudin 18 isoform 2 (claudin 18.2) (human); experiment: immunofluorescence imaging, CHO-CLDN18.2 cells, serial dilution
T1 construct: Recombinant on transfected CHO cells (CHO-CLDN18.2) or endogenous on tumor cell lines PATU8988S, NUGC-4, KATOIII; the cell line is named under assay; also called CLDN18.2
Procedure: (§1) The specific cellular binding affinity of anti-Claudin18.2 antibodies was tested on CHO-CLDN18.2 (transfected CHO cell expressing recombinant human CLDN18.2) and CHO-CLDN18.1 (transfected CHO cell expressing recombinant human CLDN18.1) cells. The cells were plated in complete media containing F12 with 10% FBS, then incubated overnight at 37° C., anti-Claudin18.2 antibodies were serial diluted and added to the assay plates, incubated at 4° C. for 2 hours, followed by fixing cells and further staining the cells for 30 minutes with Alexa Fluor® 488 Goat Anti-Human IgG (H+L) secondary antibody, invitrogen Cat #A-11013 for detection. The binding was assessed by imaging the cells and quantifying the fluorescence intensity using a Biotek Cytation.

[3] = target: T1, human claudin 18 isoform 2 (claudin …); experiment: immunofluorescence imaging, CHO-CLDN18.2 cells (FIG. 3B); Table 5 prints 3.0
Procedure: as §1

[4] = target: T1, human claudin 18 isoform 2 (claudin …); experiment: imaging, PATU8988S cells (endogenous CLDN18.2); ++ = EC50 between 20 nM and 100 nM
[5] = target: T2, human claudin 18 isoform 1 (claudin 18.1) (human, UniProt P56856 1-261); experiment: immunofluorescence imaging on CHO cells expressing human CLDN18.1, antibody at 10 µg/ml
T2 construct: Recombinant on transfected CHO cells (CHO-CLDN18.1); also called CLDN18.1
T2 sequence (P56856 whole entry, canonical isoform): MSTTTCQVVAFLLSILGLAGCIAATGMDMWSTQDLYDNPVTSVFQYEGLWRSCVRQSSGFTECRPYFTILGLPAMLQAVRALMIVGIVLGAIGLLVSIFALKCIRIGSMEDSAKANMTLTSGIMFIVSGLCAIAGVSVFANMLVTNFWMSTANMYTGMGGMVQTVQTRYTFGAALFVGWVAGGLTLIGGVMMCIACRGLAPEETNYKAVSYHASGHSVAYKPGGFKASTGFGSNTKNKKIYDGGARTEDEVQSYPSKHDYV
Procedure: as §1

[6] = target: T1, human claudin 18 isoform 2 (claudin …); experiment: immunofluorescence imaging, CHO-CLDN18.2 cells (FIG. 3C); Table 5 prints 0.8
Procedure: as §1

[7] = target: T1, human claudin 18 isoform 2 (claudin …); experiment: imaging, PATU8988S cells (endogenous CLDN18.2); ++++ = EC50 less than 2 nM
[8] = target: T2, human claudin 18 isoform 1 (claudin …); experiment: imaging, CHO-CLDN18.1 cells, dose titration
Procedure: as §1

[9] = target: T1, human claudin 18 isoform 2 (claudin …); experiment: immunofluorescence imaging, CHO-CLDN18.2 cells; low end tied to Hu-18 by Table 6 (0.8)
Procedure: as §1

[10] = target: T2, human claudin 18 isoform 1 (claudin …); experiment: imaging, CHO-CLDN18.1 cells, single concentration (FIG. 3A)
Procedure: as §1

[11] = target: T1, human claudin 18 isoform 2 (claudin …); experiment: cell-based or functional assay; remark: listed apart in the source
[12] = target: T1, human claudin 18 isoform 2 (claudin …); experiment: cell-based or functional assay; remark: listed apart in the source
[13] = target: T1, human claudin 18 isoform 2 (claudin …); experiment: imaging, PATU8988S cells (endogenous CLDN18.2); +++ = EC50 between 2 nM and 20 nM
Procedure: Tumor cells were plated in complete media containing RPMI1640 with +10% FBS, then incubated overnight at 37° C., Claudin18.2 antibodies were serial diluted and added to the assay plates, incubated at 4° C. for 2 hours, followed by fixing cells and further staining the cells for 30 minutes with Alexa Fluor® 488 Goat Anti-Human IgG (H+L) secondary antibody (invitrogen Cat #A-11013) for detection. The binding was assessed by imaging the cells and quantifying the fluorescence intensity using a Biotek Cytation.

[14] = target: T1, human claudin 18 isoform 2 (claudin …); experiment: immunofluorescence imaging, CHO-CLDN18.2 cells (FIG. 3C); Table 6 prints 1.3
Procedure: as §1

B1: Ms2 (antibody, V domains shown)
VH: QVQLKESGPGLVAPSQSLSITCTVSGFSLTSYGVHWVRQPPGKGLEWLGVIWAGGSTNYNSALMSRLSISKDNSKSQVFLKMNSLQTDDTAMYYCARDFTTATGFDYWGQGTTLTVSS
VL: DIVMTQSPSSLSVSAGEKVTMSCKSSQSLLNSGNQKNYLAWYQQKPGQPPKLLIYGASTRESGVPDRFTGSGSGTDFTLTISSVQAEDLAVYYCQNDHSYPFTFGSGTKLEIK
endocytosis derived cell toxicity EC50, CHO-18.2 cells (anti-IgG Fc-MMAF co-internalization) [1]: 2.55 nM | EC50 [2]: 3 nM | EC50 [3]: 2.8 nM | EC50 [4]: 20 to 100 nM | binding result [5]: no binding (tested: 10 µg/ml)

B2: Ms11 (antibody, V domains shown)
VH: QVQLQQSGAELVKPGASVKMSCKAFGYTFTTYSIEWMKQNHGKSLEWIGNFRPYNDDTKCNEKFKGKAKLTVEKSSSTVYLELSRLTSDDSAVYYCARGSYGNSFAYWGQGTLVTVSA
VL: DIVMTQSPSSLSVSAGEKVTMSCKSSQSLLNSGNQKNYLAWYQQKPGQPPKLLIYGASTRESGVPDRFTGSGSGTDFTLTISSVQAEDLAVYYCQNDHSYPFTFGSGTKLEIK
endocytosis derived cell toxicity EC50, CHO-18.2 cells (anti-IgG Fc-MMAF co-internalization) [1]: 1.3 nM | EC50 [2]: 3.3 nM | EC50 [4]: 20 to 100 nM | binding result [5]: no binding (tested: 10 µg/ml)

B3: Ms4 (antibody, V domains shown)
VH: EVQLQQSGPELEKPGASVKISCKASGYSFTGYNMNWVKQSNGKSLEWIGNIDPYYGGTRYNQKFKGKATLTVDRSSSTAYMQLKSLTSEDSAVYYCARLGLGNAMDYWGQGTSVTVSS
VL: DIVMTQSPSFLTVTAGEKVTMSCKSSQSLLNSGNQKSYLTWYQQKPGQPPKLLIYWASTRESGVPDRFTGSGSGTDFTLTISSVQAEDLAVYYCQNDYYYPFTFGSGTELEIK
endocytosis derived cell toxicity EC50, CHO-18.2 cells (anti-IgG Fc-MMAF co-internalization) [1]: 0.98 nM | EC50 [2]: 0.8 nM | EC50 [6]: 0.75 nM | EC50 [7]: < 2 nM | binding result [5]: no binding (tested: 10 µg/ml)

B4: Hu-17 (antibody, V domains shown)
VH: QVQLVQSGAEVKRPGASVKVSCRVSGYTLTALSMYWVRQAPGKGLEWMGGFDPEDGETIYAQKFQGRVTMTEDTSTGTAYMELSSLKSEDTAVYYCATRLRYFDWNYWGQGTPVTVSS
VL: DIVMTQTPLSSPVTLGQPASISCRSSQSLVHSDGNTYLSWLQQRPGQPPRLLIYKVSKRFSGVPDRFSGSGAGTDFTLKISRVEAEDVGVYYCTQGTQFPRTFGQGTKVEIK
notes: Human V regions (Trianni mice)
binding result [8]: no binding (tested: 133.4 nM) | EC50 [2]: 6.2 nM

B5: Hu-18 (antibody, V domains shown)
VH: QVQLVQSGAEVKKPGASVKVSCRVSGYTLSALSMYWVRQAPGKGLEWMGGFDPEDGKTIYAQKFQGRVTMTEDTSTGTAYMELSSLRSEDTAIYYCATTLRYFDWNYWGQGTPVTVSS
VL: DIVMTQTPLSSPVTLGQPASISCRSSQSLVHSDGNTYLSWLQQRPGQPPRLLIYKVSKRFSGVPDRFSGSGAGTDFTLKISRVEAEDVGVYYCTQGTQFPRTFGQGTKVEIK
notes: as for B4
binding result [8]: no binding (tested: 133.4 nM) | EC50 [2]: 0.8 nM | EC50 [9]: 0.77 nM

B6: Ms14 (antibody, V domains shown)
VH: EVQLQQSGPELVKPGASVKMSCKASGYTFTRYIIHWVKQKPGQGLEWIGYFNPYNDDSKNNEKFKGKATLTSDKSSSTAYMEISSLTSEDSAVYYCAKLRQERIAYWGQGTLVTVSA
VL: DIQMNQSPSSLSASLGDTITITCHVSQNIDVWLSWYQQKPGNIPKLLIYKASNLHTGVPSRFSGSGSGTGFTLTISSLQPEDIATYYCQQGQSYPLTFGAGTKLELK
endocytosis derived cell toxicity EC50, CHO-18.2 cells (anti-IgG Fc-MMAF co-internalization) [1]: 1.02 nM | binding result [10]: no binding (tested: 10 µg/ml) | EC50 [2]: 1.1 nM | EC50 [4]: 20 to 100 nM

B7: Hu-2 (antibody, V domains shown)
VH: QLRLQESGPGLVKPSETLSLTCAVSGGSISSSRSYWGWIRQPPGKGLELIGSIYYSGSTYYNPSLKSRVTISVDTSKNQFSLKLTSVTATDTAVYYCARQTLRYFDWLSPFDYWGQGTLVTVSS
VL: EIVMTQSPATLSLSPGERATLSCRASQSVRSNYLSWYQQKPGQAPRLLIYGTSTRATGIPARFSGSGSGTDFTLTISSLQPEDFAVYFCQQDYNLPITFGQGTRLEIK
ADCC EC50, CHO-18.2 target cells (mouse FcγRIV reporter bioluminescence) [11]: 3.51 nM | endocytosis derived cell toxicity EC50, CHO-18.2 cells (anti-IgG Fc-MMAF co-internalization) [12]: 1.43 nM | EC50 [2]: 1.5 nM | EC50 [13]: 2 to 20 nM | binding result [5]: no binding (tested: 10 µg/ml)

B8: Hu-6 (antibody, V domains shown)
VH: QMQLRESGPGLVKPSETLSLTCTVSNGPISSSRYYWGWIRQPPGKGLEWIGSFHYSGSTYYKPSLKSRVTISADTSKNQLSLELSSVTAADTAVYYCARLVLRYFDWLGYFDLWGRGTLVTVSS
VL: EFVMTQSPATLSLSPGERATLSCRASQSIRSNYLSWYQQKPGQAPRLLIYGASTRATAIPARFSGSGSGTDFTLTISSLQPEDFAVYYCQQDYNLPITFGQGTRLEIK
ADCC EC50, CHO-18.2 target cells (mouse FcγRIV reporter bioluminescence) [11]: 4.8 nM | endocytosis derived cell toxicity EC50, CHO-18.2 cells (anti-IgG Fc-MMAF co-internalization) [12]: 1.69 nM | EC50 [2]: 1.5 nM | EC50 [13]: 2 to 20 nM

B9: Hu-3 (antibody, V domains shown)
VH: QLQLQESGPGLVKPSETLSLTCTVSDGPISSSRYYWGWIRQPPGKGLEWIGSFHYSGSTYYNPSLKSRVTISADTSKNQFSLKLSSVTAADTAVYYCARLVLRYFDWLGFFDLWGRGTLVTVSS
VL: EIVMTQSPAILSLSPGERAALSCRASQSVRSSYLSWYQQKPGQAPRLLIYGTSTRATGIPARFSGSGSGTDFTLTISSLQPEDFAVYYCQQDYNLPITFGQGTRLEFK
ADCC EC50, CHO-18.2 target cells (mouse FcγRIV reporter bioluminescence) [11]: 3.11 nM | endocytosis derived cell toxicity EC50, CHO-18.2 cells (anti-IgG Fc-MMAF co-internalization) [12]: 1.23 nM | EC50 [2]: 1.3 nM | EC50 [14]: 1.34 nM | EC50 [13]: 2 to 20 nM | binding result [5]: no binding (tested: 10 µg/ml)

B10: Ms16 (antibody, V domains shown)
VH: QVQLQQSGAELVRPGTSVKVSCKASGYAFTNYLIEWIKQRPGQGLEWIGVINPGSGGTNYNEKLKGKATLTADKSSSTAYMQLSSLTSGDSAVYFCARYVKGNALDYWGQGTSVTVSS
VL: DIVMTQSPSSLTVTAGEKVTLSCKSSQSLFNSGNQKNYLTWYQQKPGQPPKLLIYWASTRESGVPDRFTGSGSGTDFTLTISSVQAEDLAIYYCQNSYSFPLTFGAGTKLELT
endocytosis derived cell toxicity EC50, CHO-18.2 cells (anti-IgG Fc-MMAF co-internalization) [1]: 1 nM | binding result [10]: no binding (tested: 10 µg/ml) | EC50 [2]: 0.8 nM | EC50 [7]: < 2 nM
